Test results: patent publication US20230212285A1

Target: human C-KIT-Fc protein (human) (UniProt P10721)
Assay: direct ELISA, IgG at 1 µg/ml

OD450 nm [OD450 nm] | Binder
> 1.8 | E-C2 (antibody, human IgG1, V domains shown) VH: QVQLVQSGAEVKKPGASVKVSCKASGYTFTDYYMNWVRQAPGQGLEWMGRIYPGSGNTYYAQKFQGRVTMTRDTSTSTVYMELSSLRSEDTAVYYCARGVYYLDYWGQGTLVTVSS VL: DIQMTQSPSSLSASVGDRVTITCRASQGIRTNVAWLQQKPGKAPKSLIYSASYRQSGVPSRFSGSGSGTDFTLTISSLQPEDFATYYCQQYNSYPRTFGGGTKVEIK
> 1.8 | MH1 IgG1 (antibody, V domains shown) VH: QVQLVQSGAEVKKPGASVKVSCKASGYTFTDYYMNWVRQAPGQGLEWMGRIYPGSGNTYYAQKFQGRVTMTRDTSTSTVYMELSSLRSEDTAVYYCARGVYYYDYWGQGTLVTVSS VL: DIQMTQSPSSLSASVGDRVTITCRASQGIRTNLAWFQQKPGKAPKSLIYAASSLQSGVPSRFSGSGSGTDFTLTISSLQPEDFATYYCQQYNSYPRTFGGGTKVEIK
